24 molecules from patent US20040072319A1, “Molecules that modulate ubiquintin-dependent proteolysis and methods for identifying same” (priority 2003, published 2004) can be followed below.

Values joined by “and” are separate entries in the source; they are usually repeats but may differ in a detail not shown here. Identical values can stand only once. Square brackets hold non-standard residues; d marks the D form. Ends that are not written are not given here. Peptide text beside a SMILES is read from it. pY = N[C@@H](Cc1ccc(OP(=O)(O)O)cc1)C(=O)O; pT = C[C@@H](OP(=O)(O)O)[C@H](N)C(=O)O; pS = N[C@@H](COP(=O)(O)O)C(=O)O

One experiment addresses Cdc4 (Saccharomyces cerevisiae, UniProt P07834). Put plainly: Fluorescence polarization equilibrium binding of peptides to Cdc4. Also noted: made in house; host or cells: Cdc4: baculovirus-infected insect (Sf9) cells; Gst-Skp1: E. coli BL21 codon plus; species or system yeast. The protocol:
Equilibrium binding constant determination was carried out using fluorescence polarization on a Beacon 2000 Fluorescence Polarization System (Pan Vera, Wis.) equipped with a 100 μL sample chamber. Fluorescein-labeled probes were prepared through the reaction of carboxyterminal-peptides with 5-(and-6)-carboxyfluorescein succinimidyl ester (Molecular Probes), purified by reverse-phase HPLC, and confirmed by mass spectrometry. Binding studies were conducted with 5 nM fluorescein-labeled probe dissolved in PBS containing 100 μg/ml BSA and 1 mM dithiothreitol. Reaction mixtures were allowed to equilibrate for 10 minutes at room temperature prior to each measurement. All fluorescence polarization measurements were conducted at 22° C.

The target of experiment [1] is T1, Skp1-Cdc4 complex (yeast, UniProt P07834 1-779; P52286 1-194, limits assumed).
T1 construct: Purified complex (Gst removed by TEV, size exclusion) for fluorescence polarization and SPOTS arrays; also called Cdc4/Skp1; cdc4/skp1 complex
T1 sequence (P07834 whole entry, chain 1 of 2): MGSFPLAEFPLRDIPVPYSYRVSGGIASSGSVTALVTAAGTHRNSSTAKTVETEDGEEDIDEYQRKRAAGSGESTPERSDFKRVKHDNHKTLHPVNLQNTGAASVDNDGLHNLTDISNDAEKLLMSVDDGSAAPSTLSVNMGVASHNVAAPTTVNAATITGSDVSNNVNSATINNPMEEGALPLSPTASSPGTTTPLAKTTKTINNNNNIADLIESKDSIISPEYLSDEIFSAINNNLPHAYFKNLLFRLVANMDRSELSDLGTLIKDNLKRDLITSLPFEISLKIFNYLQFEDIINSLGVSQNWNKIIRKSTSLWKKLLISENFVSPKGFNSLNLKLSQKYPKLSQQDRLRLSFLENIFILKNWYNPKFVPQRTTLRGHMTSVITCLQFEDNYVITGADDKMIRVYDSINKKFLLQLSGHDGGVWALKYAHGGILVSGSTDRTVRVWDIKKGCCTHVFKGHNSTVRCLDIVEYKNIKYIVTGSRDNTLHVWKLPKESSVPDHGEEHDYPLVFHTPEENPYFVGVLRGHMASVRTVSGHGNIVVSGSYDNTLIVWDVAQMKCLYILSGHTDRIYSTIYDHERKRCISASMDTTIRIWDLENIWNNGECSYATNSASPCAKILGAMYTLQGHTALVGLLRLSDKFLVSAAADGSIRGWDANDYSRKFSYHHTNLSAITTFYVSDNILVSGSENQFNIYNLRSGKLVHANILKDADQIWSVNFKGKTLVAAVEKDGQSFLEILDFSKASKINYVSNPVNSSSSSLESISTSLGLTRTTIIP
T1 sequence (P52286 whole entry, chain 2 of 2): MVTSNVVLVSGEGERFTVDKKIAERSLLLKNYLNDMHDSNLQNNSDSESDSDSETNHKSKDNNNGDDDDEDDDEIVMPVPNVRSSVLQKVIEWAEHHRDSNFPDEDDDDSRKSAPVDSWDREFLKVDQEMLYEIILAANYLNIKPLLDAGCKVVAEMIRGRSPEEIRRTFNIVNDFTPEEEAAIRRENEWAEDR
Put plainly: fluorescence polarization, 5 nM fluorescein-labeled peptide, Cdc4/Skp1 titrated.

The target in another experiment is T2, Cdc4-Skp1 complexes (Saccharomyces cerevisiae, UniProt P07834).
T2 construct: made in house; host or cells: insect cells (baculovirus)
T2 sequence (P07834 whole entry): as the sequence (P07834 whole entry, chain 1 of 2) above
T2 sequence (P52286 whole entry partner): as the sequence (P52286 whole entry, chain 2 of 2) above
The experiment in a line: Peptide out-competition of phosphorylated substrates binding to Cdc4-Skp1. The following applies: peptide 3, 17, 68 μM in FIG. 6f. Also noted: species or system yeast. From the text:
SCF complexes were purified from SF9 cells infected with recombinant baculoviruses and used in binding assays and ubiquitination reactions essentially as described (7). Gst-Skp1 expressed in BL21 codon plus cells (Stratagene) then purified on glutathione resin was used to capture full Cdc4 from insect cell lysates. Truncated forms of Cdc4 were enriched prior to Gst-Skp1 capture by affinity purification of hexahistidine fusion proteins on a metal chelate column. The Skp1-Cdc4 complexes were released from the Gst moiety by cleavage with TEV protease and further purified by size exclusion chromatography on a Superdex S75 or S200 column. Biotin labeled […]p[…] (SEQ ID NO. 1), […] (SEQ ID NO. 12), and APPLSQEpTFSDLWK (SEQ ID NO. 13) were synthesized by addition of d-biotin (Sigma) with an Fmoc-e-aminocaproic acid (Bachem) spacer to carboxy-terminal peptides. […] Streptavidin-agarose beads (Sigma) were incubated in the presence of biotinylated peptide for 90 min. at 4° C. Beads were washed 3 times and then incubated with lysates from Cdc4 expressing baculovirus infected Sf9 cells. Beads were washed 4 times, after which SDS-PAGE gel loading buffer was added and the beads were boiled for 5 min. Proteins were separated by SDS-PAGE and visualized by silver stain. Peptide out-competition of phosphorylated substrates was carried out with immunopurified Skp1^FLAG-Cdc4 from insect cells, which were incubated with phosphopeptides prior to addition of phospho-Sic1 or phospho-Cyclin E-Cdk2. For kinase inhibition assays, purified recombinant Clb5-Cdc28 complex (30 ng) was incubated with mutant forms of Sic1 (40 ng) and histone H1 (HH1, 2 μg) for 1 h on ice prior to addition of [^32P]-γ-ATP and incubation at 25° C. for 30 min. Samples were separated by SDS-PAGE and visualized by autoradiography.

Experiment [2] has as its target T1, Skp1-Cdc4 complex. The experiment in a line: fluorescence polarization.
Protocol: Equilibrium binding constant determination was carried out using fluorescence polarization on a Beacon 2000 Fluorescence Polarization System (Pan Vera, Wis.) equipped with a 100 μL sample chamber. […] Binding studies were conducted with 5 nM fluorescein-labeled probe dissolved in PBS containing 100 μg/ml BSA and 1 mM dithiothreitol. Reaction mixtures were allowed to equilibrate for 10 minutes at room temperature prior to each measurement. All fluorescence polarization measurements were conducted at 22° C.
The requirement for phosphorylation on threonine, as opposed to serine or tyrosine residues was also investigated.
The mark [3] stands for this setting: K, (μM), Table 1, average of at least 3 sets of readings, ± SEM, ND = no binding detected up to [Cdc4/Skp1] of 10 μM, ˜ = saturation binding not achieved.
The mark [4] stands for this setting: dissociation constant Kd for Cdc4.

As to `CSCC[C@H](NC(=O)[C@@H]1CCCN1C(=O)[C@@H]1CCCN1C(=O)[C@@H](NC(=O)[C@@H](NC(=O)[C@@H]1CCCN1C(=O)[C@@H]1CCCN1C(=O)c1ccc2c(c1)C(=O)OC21c2ccc(O)cc2Oc2cc(O)ccc21)C(C)C)[C@@H](C)OP(=O)(O)O)C(=O)N[C@@H](CO)C(=O)N1CCC[C@H]1C(=O)O` [Ash 1 pT290, PPVpTPPMSP] (HELM PEPTIDE1{[O=C1OC2(c3ccc(O)cc3Oc3cc(O)ccc32)c2ccc(C(=O)[*:2])cc21].P.P.V.[C[C@@H](OP(=O)(O)O)[C@H](N[*:1])C(=O)[*:2]].P.P.M.S.P}$$$$V2.0), the Kd on Cdc4 (setting [3]) was ~25 µM.

As for `CC(C)C[C@H](NC(=O)CNC(=O)c1ccc2c(c1)C(=O)OC21c2ccc(O)cc2Oc2cc(O)ccc21)C(=O)N[C@@H](CC(C)C)C(=O)N[C@H](C(=O)N1CCC[C@H]1C(=O)N1CCC[C@H]1C(=O)N[C@@H](CCC(N)=O)C(=O)N[C@@H](CO)C(=O)NCC(=O)O)[C@@H](C)OP(=O)(O)O` [CycE-9mer, GLLpTPPQSG] (HELM PEPTIDE1{[O=C1OC2(c3ccc(O)cc3Oc3cc(O)ccc32)c2ccc(C(=O)[*:2])cc21].G.L.L.[C[C@@H](OP(=O)(O)O)[C@H](N[*:1])C(=O)[*:2]].P.P.Q.S.G}$$$$V2.0), the Kd at Cdc4 (setting [3]) amounted to 1 ± 0.05 µM.

In the case of `CC(=O)NCCCC[C@H](NC(=O)[C@@H]1CCCN1C(=O)[C@@H]1CCCN1C(=O)[C@@H](NC(=O)[C@H](CC(C)C)NC(=O)[C@H](CC(C)C)NC(=O)CNC(=O)c1ccc2c(c1)C(=O)OC21c2ccc(O)cc2Oc2cc(O)ccc21)[C@@H](C)OP(=O)(O)O)C(=O)N[C@@H](CO)C(=O)NCC(=O)O` [CycEK3Ac-9mer, GLLpTPPK(Ac)SG] (HELM PEPTIDE1{[O=C1OC2(c3ccc(O)cc3Oc3cc(O)ccc32)c2ccc(C(=O)[*:2])cc21].G.L.L.[C[C@@H](OP(=O)(O)O)[C@H](N[*:1])C(=O)[*:2]].P.P.K.S.G}|PEPTIDE2{[ac]}$PEPTIDE1,PEPTIDE2,8:R3-1:R2$$$V2.0), the Kd at Cdc4 (setting [3]) is 1 ± 0.1 µM.

`CC(C)C[C@H](NC(=O)CNC(=O)c1ccc2c(c1)C(=O)OC21c2ccc(O)cc2Oc2cc(O)ccc21)C(=O)N[C@@H](CC(C)C)C(=O)N[C@@H](COP(=O)(O)O)C(=O)N1CCC[C@H]1C(=O)N1CCC[C@H]1C(=O)N[C@@H](CCC(N)=O)C(=O)N[C@@H](CO)C(=O)NCC(=O)O` [CycEpS-9mer, GLLpSPPQSG] (HELM PEPTIDE1{[O=C1OC2(c3ccc(O)cc3Oc3cc(O)ccc32)c2ccc(C(=O)[*:2])cc21].G.L.L.[O=C([C@H](COP(=O)(O)O)N[*:1])[*:2]].P.P.Q.S.G}$$$$V2.0): on Cdc4 (setting [4]), the Kd came out at 6 µM.

In the case of `CC[C@H](C)[C@H](NC(=O)[C@H](CC(C)C)NC(=O)[C@H](CCC(N)=O)NC(=O)[C@H](CCC(=O)O)NC(=O)[C@H](CCC(N)=O)NC(=O)[C@@H]1CCCN1C(=O)[C@@H](NC(=O)[C@H](Cc1ccccc1)NC(=O)[C@H](CCC(N)=O)NC(=O)[C@@H]1CCCN1C(=O)[C@H](Cc1ccccc1)NC(=O)[C@H](CCC(=O)O)NC(=O)CNC(=O)[C@@H](NC(=O)c1ccc2c(c1)C(=O)OC21c2ccc(O)cc2Oc2cc(O)ccc21)[C@@H](C)O)[C@@H](C)OP(=O)(O)O)C(=O)O` [FarpT306, TGEFPQFpTPQEQLI] (HELM PEPTIDE1{[O=C1OC2(c3ccc(O)cc3Oc3cc(O)ccc32)c2ccc(C(=O)[*:2])cc21].T.G.E.F.P.Q.F.[C[C@@H](OP(=O)(O)O)[C@H](N[*:1])C(=O)[*:2]].P.Q.E.Q.L.I}$$$$V2.0), the Kd at Cdc4 (setting [3]) is ~25 µM.

Consider `CC(C)C[C@H](NC(=O)[C@@H](NC(=O)[C@@H]1CCCN1C(=O)[C@@H](NC(=O)[C@@H]1CCCN1C(=O)[C@H](CC(C)C)NC(=O)[C@H](Cc1ccccc1)NC(=O)c1ccc2c(c1)C(=O)OC21c2ccc(O)cc2Oc2cc(O)ccc21)[C@@H](C)OP(=O)(O)O)C(C)C)C(=O)N[C@@H](CCC(=O)O)C(=O)N[C@@H](CC(=O)O)C(=O)O` [Gcn4-9mer, FLPpTPVLED] (HELM PEPTIDE1{[O=C1OC2(c3ccc(O)cc3Oc3cc(O)ccc32)c2ccc(C(=O)[*:2])cc21].F.L.P.[C[C@@H](OP(=O)(O)O)[C@H](N[*:1])C(=O)[*:2]].P.V.L.E.D}$$$$V2.0), for which the Kd on Cdc4 (setting [4]) was 0.675 µM and 0.88 µM.

On to `CC[C@H](C)[C@H](NC(=O)[C@@H]1CCCN1C(=O)[C@@H](NC(=O)[C@H](CC(C)C)NC(=O)[C@H](CC(C)C)NC(=O)[C@H](CCC(=O)O)NC(=O)c1ccc2c(c1)C(=O)OC21c2ccc(O)cc2Oc2cc(O)ccc21)[C@@H](C)OP(=O)(O)O)C(=O)N[C@@H](CC(C)C)C(=O)N[C@@H](C)C(=O)N[C@@H](Cc1ccccc1)C(=O)O` [Pc17, ELLpTPILAF] (HELM PEPTIDE1{[O=C1OC2(c3ccc(O)cc3Oc3cc(O)ccc32)c2ccc(C(=O)[*:2])cc21].E.L.L.[C[C@@H](OP(=O)(O)O)[C@H](N[*:1])C(=O)[*:2]].P.I.L.A.F}$$$$V2.0), for which the Kd at Cdc4 (setting [3]) is ~40 µM.

The molecule CycE-5mer LLpTPP (peptide) came in with a Kd with Skp1-Cdc4 complex [1] of 0.85 µM.

In turn, CycEK2-9mer GLLpTPKQSG (peptide) gave a Kd with Skp1-Cdc4 complex [1] of 6.3 µM.

For CycEK3-9mer GLLpTPPKSG (peptide), the Kd with Skp1-Cdc4 complex [1] came to 5.1 µM.

The molecule CycEK4-9mer GLLpTPPQKG (peptide) showed a Kd with Skp1-Cdc4 complex [1] of 4.3 µM.

In the experiment with Skp1-Cdc4 complex [1], CycEK5-9mer GLLpTPPQSK (peptide) yielded a Kd of 2.4 µM.

Molecule CycEK-1-9mer GLKpTPPQSG (peptide) had a Kd with Skp1-Cdc4 complex [1] of 6 µM.

Take CycEK-2-9mer GKLpTPPQSG (peptide): the dissociation constant (Kd) with Skp1-Cdc4 complex [1] turned out to be 12 µM.

Take GLLpYPPQSG (GLL[pY]PPQSG) [CycEpY-9mer]: the “binding to Cdc4 (in words)” value with Cdc4 is listed as “failed to bind”.

For “PKPLNLSKPIpSPPPSLKKTA (PKPLNLSKPI[pS]PPPSLKKTA) [Far 1 pS87]”, the “competition with substrates (Sic1, cyclin E1, Far1) for binding to Cdc4” value (“competition with substrates” for short) with Cdc4-Skp1 complexes is “nor block the interaction”. In addition, the “binding to Cdc4 (in words)” value with Cdc4 was “could neither bind stably to Cdc4”.

As for “Sic1 15-pT45: Sic1 phosphopeptide centered on pT45; possibly the SicpT45 peptide of Table 1”, the “competition with substrates” value with Cdc4-Skp1 complexes was “does not measurably bind Cdc4 or compete with substrates”. Further, the “binding to Cdc4 (in words)” value in the experiment with Cdc4 is recorded as “does not measurably bind Cdc4”.

Regarding VPVpTPSTTK (VPV[pT]PSTTK) [SicpT45], in the experiment with Cdc4-Skp1 complexes, the “competition with substrates” value is given as “nor block the interaction”. In addition, in the experiment with Cdc4, the “binding to Cdc4 (in words)” value was “could neither bind stably to Cdc4”.

With GLL[pT]APQSG [CycEA1-9mer GLLpTAPQSG], the binding result in the experiment with Skp1-Cdc4 complex [2] is “no binding (tested: up to [Cdc4/Skp1] of 10 µM)”.

On to GLL[pY]PPQSG (also called CycE19-pY380) [CycEpY-9mer GLLpYPPQSG], for which the binding result in the experiment with Skp1-Cdc4 complex [2] is “no binding (tested: up to [Cdc4/Skp1] of 10 µM)”.

Take PKPLNLSKPI[pS]PPPSLKKTA [Far 1 pS87 peptide PKPLNLSKPIpSPPPSLKKTA]: in the experiment with Skp1-Cdc4 complex [2], the binding result was “no binding (tested: up to [Cdc4/Skp1] of 10 µM)”.

Take VEQ[pT]PKKPG [p27pT187 peptide VEQpTPKKPG]: in the experiment with Skp1-Cdc4 complex [2], the binding result is “no binding (tested: up to [Cdc4/Skp1] of 10 µM)”.

B1: SicpT45 peptide VPVpTPSTTK (peptide)
peptide: VPV[pT]PSTTK
notes: also called Sic1 pT45 phosphopeptide; Sic1 15-pT45 peptide
In the case of B1, the binding result in the experiment with Skp1-Cdc4 complex [2] is “no binding (tested: up to [Cdc4/Skp1] of 10 µM)”.

With NVQ[pT]PTLMA (also called Pcl2) [Pc12 peptide NVQpTPTLMA], in the experiment with Skp1-Cdc4 complex [2], the binding result is “no binding (tested: up to [Cdc4/Skp1] of 10 µM)”.
